Assay results from PMC5302815.

Target: T1, FinR (Pseudomonas aeruginosa PAO1) (UniProt Q9HYK6)
T1 sequence: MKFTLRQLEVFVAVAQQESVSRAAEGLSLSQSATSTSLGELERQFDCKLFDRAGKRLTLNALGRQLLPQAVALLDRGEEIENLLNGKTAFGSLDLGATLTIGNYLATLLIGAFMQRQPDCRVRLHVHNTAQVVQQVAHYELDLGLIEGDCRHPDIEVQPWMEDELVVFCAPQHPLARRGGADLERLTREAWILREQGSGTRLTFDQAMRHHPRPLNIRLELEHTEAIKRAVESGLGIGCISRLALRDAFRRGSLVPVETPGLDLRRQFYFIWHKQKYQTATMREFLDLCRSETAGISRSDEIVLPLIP
Experiment: EMSA
Conditions: EMSA: 20 mM Tris-HCl pH 8.0, 50 mM KCl, 4 mM MgCl2, 0.5 mM EDTA, 0.02 mg/ml BSA, 5 mM DTT, 10% glycerol, 200 ng poly(dI-dC), 3 fmol probe in 25 ul, 25 C …

## AGACGCTCTCCTGCTGGGCCACGGCGACGAACACCTCGAGCTGGCGGAGGGTGAATTTCATCCAGGCTTCCTCGTCTAGAGCGAAAGGCCCCGCGACATTTTGCCGTTCCGTCGGCGGGGTTGGCTCGGTTATCCTTGCGCCCCGTCCGCGGGAGCGATGGGAGCCCTCGGCGGCCGGCGGCCGACCGATATCGTGTTATCCC (double strand) [EBI62-EBI69 fragment (without FinR site)]
  binding: no binding

## CGATATCGTGTTATCCCATATCCATATTCTGGATAAGCATTATCCAGACAATTCATTTTGCGGATATTTTGGCAACCGATAAAATGCCGCGCAACTGCGTCACGTCTGCTGCTGTTGGTGTGCGCCCGCGTTTTCCTAGGAGTCTTTGATGAGCAATCTGTACACCGAGCGCGTTCTCAGCGTGCACCACTGGAACGACACCCTGTTCAGCT (double strand) [EBI61-EBI70 fragment (with FinR site)]
  binding: binds
